# Measurements taken from paper PMC5286520 (2017).
# Bridge positions count the residues as written; N and C are the ends. Square brackets hold non-standard residues; d marks the D form. Ends that are not written are not given here.
# T1: OTR (Homo sapiens, UniProt P30559)
# T1 chain: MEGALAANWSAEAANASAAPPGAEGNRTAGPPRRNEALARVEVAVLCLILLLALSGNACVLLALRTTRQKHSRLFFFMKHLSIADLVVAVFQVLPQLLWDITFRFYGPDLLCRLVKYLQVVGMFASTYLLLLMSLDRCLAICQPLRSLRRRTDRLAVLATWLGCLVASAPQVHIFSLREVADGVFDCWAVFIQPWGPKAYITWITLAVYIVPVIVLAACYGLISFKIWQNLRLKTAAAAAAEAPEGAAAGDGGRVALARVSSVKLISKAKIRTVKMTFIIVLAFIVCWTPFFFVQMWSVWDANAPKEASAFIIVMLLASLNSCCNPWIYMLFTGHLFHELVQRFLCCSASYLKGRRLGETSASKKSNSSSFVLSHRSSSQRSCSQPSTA
# T2: V1bR (Homo sapiens, UniProt P47901)
# T2 chain: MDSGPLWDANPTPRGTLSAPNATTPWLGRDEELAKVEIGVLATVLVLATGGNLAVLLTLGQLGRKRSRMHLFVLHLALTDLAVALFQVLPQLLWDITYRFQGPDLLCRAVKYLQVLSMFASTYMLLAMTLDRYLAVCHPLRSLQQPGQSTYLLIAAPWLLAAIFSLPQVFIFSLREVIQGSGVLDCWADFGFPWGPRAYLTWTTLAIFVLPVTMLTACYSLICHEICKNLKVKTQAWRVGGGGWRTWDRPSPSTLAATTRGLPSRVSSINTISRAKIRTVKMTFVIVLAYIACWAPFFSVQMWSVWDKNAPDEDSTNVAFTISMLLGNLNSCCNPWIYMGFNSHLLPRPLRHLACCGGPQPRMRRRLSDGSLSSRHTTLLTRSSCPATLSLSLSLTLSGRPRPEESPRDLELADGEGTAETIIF
# Assays:
# [1] = molecular target: T3, V1aR (Homo sapiens, UniProt P37288); assay: Schild analysis (IP1 assay)
# [2] = molecular target: T1, OTR; assay: radioligand displacement
# [3] = molecular target: T2, V1bR; assay: radioligand displacement
# [4] = molecular target: T3, V1aR; assay: radioligand displacement
# T3 sequence (P37288 whole entry): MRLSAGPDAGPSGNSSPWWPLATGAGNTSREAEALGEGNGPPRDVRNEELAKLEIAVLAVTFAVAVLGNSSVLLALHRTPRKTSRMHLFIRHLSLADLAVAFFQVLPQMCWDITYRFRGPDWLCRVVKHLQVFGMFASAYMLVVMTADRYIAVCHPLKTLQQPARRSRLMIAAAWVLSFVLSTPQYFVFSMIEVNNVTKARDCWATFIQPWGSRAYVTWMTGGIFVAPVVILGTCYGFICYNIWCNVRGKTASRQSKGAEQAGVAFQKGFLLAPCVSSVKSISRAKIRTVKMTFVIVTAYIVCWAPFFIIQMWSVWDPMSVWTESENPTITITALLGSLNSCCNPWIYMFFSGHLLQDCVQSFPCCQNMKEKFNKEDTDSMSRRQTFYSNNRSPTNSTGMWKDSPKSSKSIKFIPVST
binder,measurement,setting,value
CLITNCP[dR]G-NH2 (disulfide 1-6 (inferred)) [[D-Arg8]-inotocin],Ki,[1],~16 nM
same,Ki,[2],> 4 µM
same,Ki,[3],> 100 µM
same,Ki,[4],1.3 nM
